Measured values reported in the supplement of paper PMC7877785.
± gives the uncertainty stated by the source.

Assay: self-splicing fitness, log relative to wild type (ln ratio); higher = more splicing; Tetrahymena group I intron in knt gene, E. coli kanamycin selection, DiMSum; sequences stand for … in CUCUCU…GGAGGGAAAAGUUAUCAGGCAUGCACCUGGUAGCUAGUCUUUAAACCAAUAGAUUGCAUCGGUUUAAAAGGCAAGACCGUCAAAUUGCGGGAAAGGGGUCAACAGCCGUUCAGUACCAAGUCUCAGGGGAAACUUUGAGAUGGCCUUGCAAAGGGUAUGGUAAUAAGCUGACGGACAUGGUCCUAACCACGCAGCCAAGUCCUAAGUCAACAGAUCUUCUGUUGAUAUGGAUGCAGUUCACAGACUAAAUGUCGGUCGGGGAAGAUGUAUUCUUCUCAUAAGAUAUAGUCGGACCUCUCCUUAAUGGGAGCUAGCGGAUGAAGUGAUGCAACACUGGAGCCGCUGGGAACUAAUUUGUAUGCGAAAGUAUAUUGAUUAGUUUUGGAGUACUCGUGGUCG
Outline: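 DiMSum derived fitness as the error-weighted combination of fold changes across replicates, kanamycin versus no kanamycin, normalised to wild type. E. coli BL21(DE3) held the library, which randomised all eight P1ex-region intron nucleotides within the knt kanamycin-resistance gene on pET-22b(+). Six replicate transformations grew overnight at 37°C or 30°C on LB agar with or without 25 μg/mL kanamycin, also containing 100 μg/mL carbenicillin, 50 μM IPTG and 0.2% rhamnose, and pooled colonies were amplicon-sequenced on an Illumina HiSeq 2500.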

Sequence	self-splicing fitness (ln) (30 °C)	self-splicing fitness (ln) (37 °C)
UUUCAGCAAUAUUACGUCGC	-3.67 ± 0.2	-2.73 ± 0.24
UUUCAGCAAUAUUACGUCGG	-1.51 ± 0.1	-1.17 ± 0.14
UUUCAGCAAUAUUACGUCUA	-0.33 ± 0.077	0.101 ± 0.079
UUUCAGCAAUAUUACGUGAG	-0.129 ± 0.054	-0.623 ± 0.07
UUUCAGCAAUAUUACGUGCU	-3.47 ± 0.32	-2 ± 0.24
UUUGAGCAAUAUUACGAACG		-0.865 ± 0.26
UUUGAGCAAUAUUACGACAU	-3.673 ± 0.034	-2.43 ± 0.043
UUUGAGCAAUAUUACGAGUA		-1.86 ± 0.21
UUUGAGCAAUAUUACGCUUA	-3.38 ± 0.36	-2.07 ± 0.23
UUUGAGCAAUAUUACGGAAA	-2.01 ± 0.21	-1.95 ± 0.24
UUUGAGCAAUAUUACGGCGA	-1.09 ± 0.18	-0.162 ± 0.19
UUUGAGCAAUAUUACGGCUC	-2.38 ± 0.42	-1.39 ± 0.46
UUUGAGCAAUAUUACGGGAA	-2.02 ± 0.39	-2.22 ± 0.32
UUUGAGCAAUAUUACGGGAU	-2.91 ± 0.2	-3.24 ± 0.32
UUUGAGCAAUAUUACGUACG	-1.49 ± 0.32	-0.599 ± 0.35
UUUGAGCAAUAUUACGUCAG	-3.43 ± 0.2	-1.46 ± 0.27
UUUGAGCAAUAUUACGUCGU	-3.91 ± 0.34	-3.09 ± 0.24

Sequence	self-splicing fitness (ln) (30 °C)	self-splicing fitness (ln) (37 °C)
UUUGAGCAAUAUUACGUGAU	-2.95 ± 0.33	
UUUUAGCAAUAUUACGACGA	-0.357 ± 0.14	0.422 ± 0.19
UUUUAGCAAUAUUACGACGU	-2.06 ± 0.25	-1.24 ± 0.22
UUUUAGCAAUAUUACGAGCA	-1.72 ± 0.15	-0.97 ± 0.16
UUUUAGCAAUAUUACGAUUG	-1.52 ± 0.14	-0.255 ± 0.16
UUUUAGCAAUAUUACGAUUU	-1.67 ± 0.16	-0.611 ± 0.21
UUUUAGCAAUAUUACGCAUC	-3.19 ± 0.31	-2.15 ± 0.23
UUUUAGCAAUAUUACGGAAG	-1.3 ± 0.17	-0.731 ± 0.19
UUUUAGCAAUAUUACGGCCA	-1.57 ± 0.19	-0.0772 ± 0.19
UUUUAGCAAUAUUACGGCGC	-1.12 ± 0.29	-0.567 ± 0.34
UUUUAGCAAUAUUACGGGGU	-1.6 ± 0.22	-1.08 ± 0.35
UUUUAGCAAUAUUACGGUCG	-0.778 ± 0.2	-0.345 ± 0.18
UUUUAGCAAUAUUACGGUGG	-1.24 ± 0.084	-1.16 ± 0.13
UUUUAGCAAUAUUACGUACA	-2.16 ± 0.15	-0.143 ± 0.2
UUUUAGCAAUAUUACGUAGA	-2.06 ± 0.22	-0.71 ± 0.24
UUUUAGCAAUAUUACGUCCC		-1.78 ± 0.48
UUUUAGCAAUAUUACGUUGC	-2.8 ± 0.43	
